In patent US20030138873A1, “Tissue engineered cartilage for drug discovery” (priority 2002, published 2003):

Experiments:
[1] = test system: engineered cartilage tissue; experiment: Cartilage matrix turnover measured without radiolabelling (PG content by DMMB method); type: cell-based, bovine
Protocol: (§1) Engineered Cartilage Tissue Formation: Engineered cartilage tissue was prepared as described in U.S. Pat. No. 6,197,061. Briefly, bovine articular chondrocytes were isolated from steer (14-18 months) and cultured in beads of 1.2% low viscosity alginate (Keltone LV, Kelco) at 4 million cells/ml in daily changes of medium containing 20% FBS, 25 μg/ml ascorbate and 10 μg/ml gentamicin, as described above in Mok, et al. On day 7, beads were dissolved by incubation for 20 minutes in 55 mM NaCitrate in 150 mM NaCl. The cells with their CM (cellular matrix) were recovered by mild centrifugation. The cells with their CM were resuspended in complete medium and seeded onto a tissue culture insert (0.4 μm pore size; 23 mm diameter, Falcon). After 7 and 21 days in culture, the de novo formed tissue was separated from the porous membrane and 4 mm diameter discs were punched out using a skin biopsy punch.
Discs of engineered cartilage tissue was punched out from engineered cartilage tissue on day 7 and cultured for 5 days in complete medium with/without IL-1α (1 ng/ml). Engineered cartilage tissue was obtained as described above. On days 1, 2, 3 and 5, the discs were harvested and digested with papain. After digestion the contents of sulfated PG and DNA were measured by the DMMB method and Hoechst 33258-dye method, respectively. […]

[2] = test system: engineered cartilage tissue; experiment: Cartilage matrix turnover measured using radiolabelling (35S-proteoglycan chase); type: cell-based, bovine; conditions: for T½ of 35S-PGs in the tissue (loss of 35S-PGs) / T½ of 35S-PGs, bimodal rate of disappearance from the tissue: IL-1α 1 ng/ml; for T½ of 35S-PGs in the tissue (loss of 35S-PGs): 7-day chase; for T½ of 35S-PGs, bimodal rate of disappearance from the tissue: double exponential decay fit
Protocol: as §1
Discs of engineered cartilage tissue were punched out from engineered cartilage tissue on day 7 and 21 and were incubated for 16 h in complete medium containing ^35S-sulfate (20 μCi/ml). After washing to remove unincorporated radioisotope, the discs were cultured for 7 days in isotope-free medium with or without IL-1α (1 ng/ml). The medium in all cases was changed and collected for the measurement of ^35S-labeled proteoglycans (^35S-PGs). At various times, discs were collected and the content of ^35S-PGs in each disc and the corresponding spent medium fraction was measured by a rapid filtration assay (4). For each set of conditions (i.e. with or without IL-1α) the amount of radiolabeled PGs remaining in each matrix pool was plotted against time of chase to measure the average half-life of ^35S-PGs in each compartment. The data were fitted to the double exponential decay equation: y=ae^−bx+ce^−d+e and the half-life calculated based on b and d. Mok, et al., Aggrecan synthesized by mature bovine chondrocytes suspended in alginate: Identification of two distinct metabolic matrix pool, Biol. Chem., 269, 33021-33027 (1994)

[3] = tissue radiolabeled on day 7 [1W]
[4] = tissue radiolabeled on day 21 [3W]

B1: IL-1: cytokine interleukin-1 (IL-1α), known modulator inducing cartilage matrix degradation, used at 1 ng/ml (protein, UniProt P01583 113-271, looked up)
Interleukin-1 alpha: SAPFSFLSNVKYNFMRIIKYEFILNDALNQSIIRANDQYLTAAALHNLDEAVKFDMGAYKSSKDDAKITVILRISKTQLYVTAQDEDQPVLLKEMPEIPKTITGSETNLLFFWETHGTKNYFTSVAHPNLFIATKQDYWVCLAGGPPSITDFQILENQA
- loss of the PGs from the engineered cartilage tissue ([1]; IL-1 at 1 ng/ml, single day of treatment, day 7 discs): 50%
- loss of proteoglycan content of engineered cartilage matrix ([1]; within a single day after treatment with IL-1): roughly half
- T½ of 35S-PGs in the tissue (loss of 35S-PGs) [2, 3]: 41.5 h
- T½ of 35S-PGs, bimodal rate of disappearance from the tissue [2, 3]: 3.6 h
- T½ of 35S-PGs in the tissue (loss of 35S-PGs) [2, 4]: 49.9 h
- T½ of 35S-PGs, bimodal rate of disappearance from the tissue [2, 4]: 35.5 h
- appearance in the medium of 35S-PGs ([2]; addition of IL-1 to the medium (1 ng/ml)): rapid increase
